{"source": "patent US20050159354A1", "key": {"[1]": {"target": "neuronal receptor for agrin, on cultured mouse cortical neurons (mouse)", "assay": "cell-based or functional assay"}, "[2]": {"target": "neuronal receptor for agrin, on cultured mouse cortical neurons (mouse)", "assay": "NIH Image analysis of immunofluorescence on cortical neurons; competitor C-Ag20z8 at 1:1 molar ratio (unpublished data)"}}, "data": [{"substance": "C-Ag20z8, 20-kD COOH-terminal fragment of mouse agrin, z8 splice variant (ligand)", "values": [{"measurement": "EC50 of c-fos induction in cortical neurons (in situ enzyme-linked immunoassay)", "setting": "[1]", "value": 0.0112, "unit": "nM"}, {"measurement": "rescue of glutamate-induced Fos expression in agrin-deficient neurons (5 nM, 2 d)", "setting": "[1]", "value": 2.2, "unit": "fold"}]}, {"substance": "C-Ag20z0, 20-kD COOH-terminal fragment of mouse agrin, z0 splice variant (ligand)", "values": [{"measurement": "EC50 of c-fos induction in cortical neurons (in situ enzyme-linked immunoassay)", "setting": "[1]", "value": 0.0133, "unit": "nM"}, {"measurement": "rescue of glutamate-induced Fos expression in agrin-deficient neurons (5 nM, 2 d)", "setting": "[1]", "value": 2.2, "unit": "fold"}]}, {"substance": "C-Ag15, 15-kD COOH-terminal fragment of mouse agrin (ligand)", "values": [{"measurement": "IC50 of inhibition of c-fos induction by 50 pM C-Ag95z8 in cortical neurons", "setting": "[1]", "value": 64.5, "unit": "pM"}, {"measurement": "inhibition of rescue of the agrin-deficient glutamate response by 5 nM C-Ag95z0 (10 nM C-Ag15)", "setting": "[1]", "value": 54, "unit": "%"}]}, {"substance": "C-Ag95z0, soluble 95-kD COOH terminus of mouse agrin, y4 z0 (from UniProt A2ASQ1 1144-1950) (ligand)", "values": [{"measurement": "EC50 of c-fos induction in cortical neurons (in situ enzyme-linked immunoassay)", "setting": "[1]", "value": 0.0119, "unit": "nM"}]}, {"substance": "rC-Agy4z8, soluble 95-kD COOH-terminal fragment of rat agrin, y4z8 isoform (from UniProt P25304 1153-1951) (ligand)", "values": [{"measurement": "reduction of labeling (mean pixel intensity)", "setting": "[2]", "value": 30, "unit": "%"}]}, {"substance": "C-Ag95z8, soluble 95-kD COOH terminus of mouse agrin, y4 z8 (from UniProt A2ASQ1 1144-1950) (ligand)", "values": [{"measurement": "EC50 of c-fos induction in cortical neurons (in situ enzyme-linked immunoassay)", "setting": "[1]", "value": 0.0127, "unit": "nM"}]}]}
